US20200199241A1 (Chugai, published 2020)

T1: human FcγRIIb (human, UniProt P31994 43-217, limits assumed)
T1 construct: also called FcgRIIb; hFcgRIIb
T1 sequence: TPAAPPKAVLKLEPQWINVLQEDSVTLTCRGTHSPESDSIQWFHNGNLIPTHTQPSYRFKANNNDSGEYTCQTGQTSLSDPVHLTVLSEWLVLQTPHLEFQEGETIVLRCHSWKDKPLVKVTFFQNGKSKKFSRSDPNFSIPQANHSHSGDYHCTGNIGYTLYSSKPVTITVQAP

T2: human FcγRIIa(H) (human, UniProt P12318 36-217)
T2 construct: also called FcgRIIaH; hFcgRIIa(H)
T2 sequence: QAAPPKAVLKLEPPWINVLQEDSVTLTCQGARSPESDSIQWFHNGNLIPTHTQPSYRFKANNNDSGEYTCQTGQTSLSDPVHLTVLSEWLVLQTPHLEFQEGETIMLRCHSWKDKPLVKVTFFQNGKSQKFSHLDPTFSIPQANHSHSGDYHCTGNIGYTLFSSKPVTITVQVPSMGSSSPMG

T3: human FcγRIIa(R) (human, UniProt P12318 36-217)
T3 construct: also called FcgRIIaR; hFcgRIIa(R)
T3 chain: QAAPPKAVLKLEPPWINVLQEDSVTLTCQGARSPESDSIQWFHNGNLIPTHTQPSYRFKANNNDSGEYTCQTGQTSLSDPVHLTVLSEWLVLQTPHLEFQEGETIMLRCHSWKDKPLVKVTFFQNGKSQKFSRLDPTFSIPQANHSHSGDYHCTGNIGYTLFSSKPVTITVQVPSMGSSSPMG


How the values were obtained:
Test in all cases: SPR, captured antibody;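 also: antibody captured on a sensor chip, Fcγ receptor flowed over at 25 °C, receptor binding normalized to the captured antibody amount and expressed relative to the reference antibody ×100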
[1] = molecular target: T1, human FcγRIIb
Description: (§1) Interaction between each modified antibody and Fcγ receptor prepared in the manner described above was analyzed using the BIACORE™ T100 surface plasmon resonance system (GE Healthcare), BIACORE™ T200 surface plasmon resonance system (GE Healthcare), BIACORE™ A100 surface plasmon resonance system or BIACORE™ 4000 surface plasmon resonance system. HBS-EP+ (GE Healthcare) was used for the running buffer, and measurements were carried out at 25° C. The chips used were chips in which antigen peptides, Protein A (Thermo Scientific), Protein A/G (Thermo Scientific) or Protein L (ACTIGEN® protein (Alltech or BioVision) were immobilized on the Series S Sensor Chip CMS (GE Healthcare) or Series S Sensor Chip CM4 (GE Healthcare) by amine coupling, or chips in which preliminarily biotinylated antigen peptides were allowed to interact and then immobilized on the Series S Sensor Chip SA (certified) (GE Healthcare). The target antibodies were captured on these sensor chips, Fcγ receptor diluted with the running buffer was allowed to interact, followed by measurement of the amount of bound antibody. The amounts bound were compared between antibodies. However, since the amount of Fcγ receptor bound depends on the amount of captured antibody, the values used for comparison were first corrected by dividing the amount of Fcγ receptor bound by the captured amount of each antibody. Through reaction with 10 mM glycine-HCl at pH 1.5, the sensor chips were regenerated by washing off antibody captured on the sensor chips and used repeatedly.
(§2) Binding strength was evaluated according to the following method based on the results of analyzing the interaction with each FcγR. […] That value was then further multiplied by 100, and the resulting value was used as an indicator of relative binding activity to each FcγR.

[2] = molecular target: T4, human FcγRIa (human, UniProt P12314 16-292, limits assumed)
T4 construct: also called FcgRIa; hFcgRIa
T4 sequence (P12314 16-292 limits assumed): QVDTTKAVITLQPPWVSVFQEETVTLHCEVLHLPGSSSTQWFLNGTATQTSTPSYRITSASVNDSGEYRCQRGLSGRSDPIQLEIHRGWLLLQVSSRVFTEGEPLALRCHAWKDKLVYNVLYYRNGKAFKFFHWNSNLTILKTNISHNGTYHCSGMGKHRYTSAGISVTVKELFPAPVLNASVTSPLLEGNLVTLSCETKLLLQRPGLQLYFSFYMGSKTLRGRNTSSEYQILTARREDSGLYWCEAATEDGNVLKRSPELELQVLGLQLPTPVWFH
Description: as §1, §2

[3] = molecular target: T2, human FcγRIIa(H)
Description: as §1, §2

[4] = molecular target: T3, human FcγRIIa(R)
Description: as §1, §2

Row | relative binding activity [1] | relative binding activity [2] | relative binding activity [3] | relative binding activity [4] | Binder
1 | 34 % of GpH7-B3/GpL16-k0 | 100 % of GpH7-B3/GpL16-k0 | 21 % of GpH7-B3/GpL16-k0 | 34 % of GpH7-B3/GpL16-k0 | GpH7-B3 A327W/GpL16-k0 (antibody, human IgG1, B3 variant; copies: 2 + 2) heavy: not shown light: DIVMTQSPLSLPVTPGEPASISCQASESLVHSNRNTYLHWYLQKPGQSPQLLIYKVSNRFSGVPDRFSGSGSGTDFTLKISRVEAEDVGVYYCSQNTHVPPTFGQGTKVEIE
2 | 46 % of GpH7-B3/GpL16-k0 | 98 % of GpH7-B3/GpL16-k0 | 12 % of GpH7-B3/GpL16-k0 | 37 % of GpH7-B3/GpL16-k0 | GpH7-B3 A327I/GpL16-k0 (antibody, human IgG1, B3 variant; copies: 2 + 2) heavy: not shown light: DIVMTQSPLSLPVTPGEPASISCQASESLVHSNRNTYLHWYLQKPGQSPQLLIYKVSNRFSGVPDRFSGSGSGTDFTLKISRVEAEDVGVYYCSQNTHVPPTFGQGTKVEIE
3 | 37 % of GpH7-B3/GpL16-k0 | 64 % of GpH7-B3/GpL16-k0 | 12 % of GpH7-B3/GpL16-k0 | 27 % of GpH7-B3/GpL16-k0 | GpH7-B3 A327T/GpL16-k0 (antibody, human IgG1, B3 variant; copies: 2 + 2) heavy: not shown light: DIVMTQSPLSLPVTPGEPASISCQASESLVHSNRNTYLHWYLQKPGQSPQLLIYKVSNRFSGVPDRFSGSGSGTDFTLKISRVEAEDVGVYYCSQNTHVPPTFGQGTKVEIE
4 | 22 % of GpH7-B3/GpL16-k0 | 95 % of GpH7-B3/GpL16-k0 | 37 % of GpH7-B3/GpL16-k0 | 17 % of GpH7-B3/GpL16-k0 | GpH7-B3 A327F/GpL16-k0 (antibody, human IgG1, B3 variant; copies: 2 + 2) heavy: not shown light: DIVMTQSPLSLPVTPGEPASISCQASESLVHSNRNTYLHWYLQKPGQSPQLLIYKVSNRFSGVPDRFSGSGSGTDFTLKISRVEAEDVGVYYCSQNTHVPPTFGQGTKVEIE
5 | 5 % of GpH7-B3/GpL16-k0 | 87 % of GpH7-B3/GpL16-k0 | 66 % of GpH7-B3/GpL16-k0 | 3 % of GpH7-B3/GpL16-k0 | GpH7-B3 D270A/GpL16-k0 (antibody, human IgG1, B3 variant; copies: 2 + 2) heavy: not shown light: DIVMTQSPLSLPVTPGEPASISCQASESLVHSNRNTYLHWYLQKPGQSPQLLIYKVSNRFSGVPDRFSGSGSGTDFTLKISRVEAEDVGVYYCSQNTHVPPTFGQGTKVEIE
6 | 29 % of GpH7-B3/GpL16-k0 | 94 % of GpH7-B3/GpL16-k0 | 47 % of GpH7-B3/GpL16-k0 | 34 % of GpH7-B3/GpL16-k0 | GpH7-B3 A327Q/GpL16-k0 (antibody, human IgG1, B3 variant; copies: 2 + 2) heavy: not shown light: DIVMTQSPLSLPVTPGEPASISCQASESLVHSNRNTYLHWYLQKPGQSPQLLIYKVSNRFSGVPDRFSGSGSGTDFTLKISRVEAEDVGVYYCSQNTHVPPTFGQGTKVEIE
7 | -3 % of GpH7-B3/GpL16-k0 | 51 % of GpH7-B3/GpL16-k0 | -2 % of GpH7-B3/GpL16-k0 | -11 % of GpH7-B3/GpL16-k0 | GpH7-B3 A327R/GpL16-k0 (antibody, human IgG1, B3 variant; copies: 2 + 2) heavy: not shown light: DIVMTQSPLSLPVTPGEPASISCQASESLVHSNRNTYLHWYLQKPGQSPQLLIYKVSNRFSGVPDRFSGSGSGTDFTLKISRVEAEDVGVYYCSQNTHVPPTFGQGTKVEIE
8 | -3 % of GpH7-B3/GpL16-k0 | 58 % of GpH7-B3/GpL16-k0 | 0 % of GpH7-B3/GpL16-k0 | 0 % of GpH7-B3/GpL16-k0 | GpH7-B3 A330S/GpL16-k0 (antibody, human IgG1, B3 variant; copies: 2 + 2) heavy: not shown light: DIVMTQSPLSLPVTPGEPASISCQASESLVHSNRNTYLHWYLQKPGQSPQLLIYKVSNRFSGVPDRFSGSGSGTDFTLKISRVEAEDVGVYYCSQNTHVPPTFGQGTKVEIE
9 | 18 % of GpH7-B3/GpL16-k0 | 97 % of GpH7-B3/GpL16-k0 | 26 % of GpH7-B3/GpL16-k0 | 17 % of GpH7-B3/GpL16-k0 | GpH7-B3 A327Y/GpL16-k0 (antibody, human IgG1, B3 variant; copies: 2 + 2) heavy: not shown light: DIVMTQSPLSLPVTPGEPASISCQASESLVHSNRNTYLHWYLQKPGQSPQLLIYKVSNRFSGVPDRFSGSGSGTDFTLKISRVEAEDVGVYYCSQNTHVPPTFGQGTKVEIE
10 | 18 % of GpH7-B3/GpL16-k0 | 95 % of GpH7-B3/GpL16-k0 | 16 % of GpH7-B3/GpL16-k0 | 14 % of GpH7-B3/GpL16-k0 | GpH7-B3 A327P/GpL16-k0 (antibody, human IgG1, B3 variant; copies: 2 + 2) heavy: not shown light: DIVMTQSPLSLPVTPGEPASISCQASESLVHSNRNTYLHWYLQKPGQSPQLLIYKVSNRFSGVPDRFSGSGSGTDFTLKISRVEAEDVGVYYCSQNTHVPPTFGQGTKVEIE
11 | 39 % of GpH7-B3/GpL16-k0 | 87 % of GpH7-B3/GpL16-k0 | 25 % of GpH7-B3/GpL16-k0 | 42 % of GpH7-B3/GpL16-k0 | GpH7-B3 A330P/GpL16-k0 (antibody, human IgG1, B3 variant; copies: 2 + 2) heavy: not shown light: DIVMTQSPLSLPVTPGEPASISCQASESLVHSNRNTYLHWYLQKPGQSPQLLIYKVSNRFSGVPDRFSGSGSGTDFTLKISRVEAEDVGVYYCSQNTHVPPTFGQGTKVEIE
